Experimental data reported in patent US12304939B2, “EGFR and C-met fibronectin type III domain binding molecules” (Janssen Biotech, Inc., priority 2012, dated 2025).
Positions count from the first letter of the chain named. Numbers in names are those of the source.

B1: ECB94: bispecific SEQ ID NO: 61: P54AR4-83v22, (AP)5, P114AR7P94-A3v22 (protein)
chain: MLPAPKNLVVSEVTEDSARLSWDDPWAFYESFLIQYQESEKVGEAIVLTVPGSERSYDLTGLKPGTEYTVSIYGVHNVYKDTNIRGLPLSAIFTTAPAPAPAPAPLPAPKNLVVSRVTEDSARLSWTAPDAAFDSFWIRYFEFLGSGEAIVLTVPGSERSYDLTGLKPGTEYVVNILGVKGGKISPPLSAIFTT
modifications: bispecific EGFR/cMet binding molecule
B2: ECB95: bispecific SEQ ID NO: 62: P54AR4-83v22, (AP)5, P114AR9P121-A6v2 (protein)
chain: B1 chain with L144V, K183S
modifications: bispecific EGFR/cMet binding molecule
B3: ECB96: bispecific SEQ ID NO: 63: P54AR4-83v22, (AP)5, P114AR9P122-A7v2 (protein)
chain: B1 chain with L144V, G145S, S146K, E148D, K183S
modifications: bispecific EGFR/cMet binding molecule
B4: A3 G40S: serine mutant of A3 c-Met domain in ECB15 context, SEQ ID NO: 213 (protein)
chain: LPAPKNLVVSRVTEDSARLSWTAPDAAFDSFWIRYFEFLSSGEAIVLTVPGSERSYDLTGLKPGTEYVVNIMGVKGGKISPPLSAIFTT
modifications: c-Met binding FN3 domain
B5: A3 V68S: serine mutant of A3 c-Met domain in ECB15 context, SEQ ID NO: 215 (protein)
chain: B4 chain with S40G, V68S
modifications: c-Met binding FN3 domain
B6: A3 N70S: serine mutant of A3 c-Met domain in ECB15 context, SEQ ID NO: 216 (protein)
chain: B4 chain with S40G, N70S
modifications: c-Met binding FN3 domain
B7: A3 L39S: serine mutant of A3 c-Met domain in ECB15 context, SEQ ID NO: 214 (protein)
chain: B4 chain with L39S, S40G
modifications: c-Met binding FN3 domain
B8: A3 P81S: serine mutant of A3 c-Met domain in ECB15 context, SEQ ID NO: 217 (protein)
chain: B4 chain with S40G, P81S
modifications: c-Met binding FN3 domain
B9: A3 W32S: serine mutant of A3 c-Met domain in ECB15 context, SEQ ID NO: 219 (protein)
chain: B4 chain with W32S, S40G
modifications: c-Met binding FN3 domain
B10: A3 K78S: serine mutant of A3 c-Met domain in ECB15 context, SEQ ID NO: 212 (protein)
chain: B4 chain with S40G, K78S
modifications: c-Met binding FN3 domain
B11: A3 F36S: serine mutant of A3 c-Met domain in ECB15 context, SEQ ID NO: 218 (protein)
chain: B4 chain with F36S, S40G
modifications: c-Met binding FN3 domain
B12: A3 F38S: serine mutant of A3 c-Met domain in ECB15 context, SEQ ID NO: 222 (protein)
chain: B4 chain with F38S, S40G
modifications: c-Met binding FN3 domain
B13: A3 M72S: serine mutant of A3 c-Met domain in ECB15 context, SEQ ID NO: 220 (protein)
chain: B4 chain with S40G, M72S
modifications: c-Met binding FN3 domain
B14: A3 I79S: serine mutant of A3 c-Met domain in ECB15 context, SEQ ID NO: 223 (protein)
chain: B4 chain with S40G, I79S
modifications: c-Met binding FN3 domain
B15: A3 R34S: serine mutant of A3 c-Met domain in ECB15 context, SEQ ID NO: 221 (protein)
chain: B4 chain with R34S, S40G
modifications: c-Met binding FN3 domain
B16: P114AR7P93-H9: c-Met-binding FN3 domain, SEQ ID NO: 40 (protein)
chain: B4 chain with S40G, N70Q, M72I, K78H, P81L
modifications: c-Met binding FN3 domain
B17: P114AR7P94-A3: c-Met-binding FN3 domain, SEQ ID NO: 41 (protein)
chain: B4 chain with S40G
modifications: c-Met binding FN3 domain
B18: P114AR7P95-D4: c-Met-binding FN3 domain, SEQ ID NO: 45 (protein)
chain: B4 chain with S40G, N70Q, M72L, K78Y, P81I
modifications: c-Met binding FN3 domain
B19: P114AR7P92-F6: c-Met-binding FN3 domain, SEQ ID NO: 35 (protein)
chain: B4 chain with S40G, M72L, K78G, I79L, P81V
modifications: c-Met binding FN3 domain
B20: P114AR7P92-G8: c-Met-binding FN3 domain, SEQ ID NO: 36 (protein)
chain: B4 chain with W32V, S40G, N70Q, M72L, K78Y, P81I
modifications: c-Met binding FN3 domain
B21: P114AR7P92-H5: c-Met-binding FN3 domain, SEQ ID NO: 37 (protein)
chain: B4 chain with F36L, S40L, S41G, N70Q, K78T, I79V
modifications: c-Met binding FN3 domain
B22: P114AR7P93-G8: c-Met-binding FN3 domain, SEQ ID NO: 39 (protein)
chain: B4 chain with S40G, G60D, V68G, N70T, M72N, K78R, I79V, P81T
modifications: c-Met binding FN3 domain
B23: P114AR7P95-F10: c-Met-binding FN3 domain, SEQ ID NO: 47 (protein)
chain: B4 chain with L39T, S40T, S41A, K78S
modifications: c-Met binding FN3 domain
B24: P114AR7P95-G7: c-Met-binding FN3 domain, SEQ ID NO: 48 (protein)
chain: B4 chain with F38L, S41T, K78S
modifications: c-Met binding FN3 domain
B25: P114AR7P95-H8: c-Met-binding FN3 domain, SEQ ID NO: 49 (protein)
chain: B4 chain with L39V, S41K, K78S
modifications: c-Met binding FN3 domain
B26: P114AR5P74-A5: c-Met-binding FN3 domain, SEQ ID NO: 32 (protein)
chain: B4 chain with F36D, F38V, L39V, S40V, S41G, V68Y, M72L, K78S, P81V
modifications: c-Met binding FN3 domain
B27: P114AR7P94-E5: c-Met-binding FN3 domain, SEQ ID NO: 42 (protein)
chain: B4 chain with S40G, V68A, K78R, I79V, P81V
modifications: c-Met binding FN3 domain

System: H292 cells
Assay: Inhibition of proliferation of HGF-induced H292 cells
Assay type: cell-based, human
Settings: bispecific molecules
From the text: Inhibition of tumor cell proliferation can be measured using standard methods and methods described herein.
The proliferation assay was completed using different combinations EGFR and c-Met binding FN3 domains either as a mixture or linked in a bispecific format. […] This confirmed that the avidity effect observed at the level of the receptors (FIG. 4 and FIG. 5) translates into an improvement in inhibiting cell signaling (Table 12) and cell proliferation (Table 13).
Inhibition of human tumor cell growth was assessed in standard attachment culture as described in Examples 3 or 6, or in low attachment conditions.

Row | Molecule | IC50 [nM]
1 | B1 | 29.6
2 | B2 | 383
3 | B3 | 9480

Molecular target: T1, c-Met-Fc fusion protein (Homo sapiens, UniProt P08581)
T1 construct: recombinant EGFR and/or c-Met extracellular domain
Assay: c-Met-Fc affinity by surface plasmon resonance (Proteon)
Assay type: binding
Settings: not given

T1 sequence (P08581 25-932 limits assumed): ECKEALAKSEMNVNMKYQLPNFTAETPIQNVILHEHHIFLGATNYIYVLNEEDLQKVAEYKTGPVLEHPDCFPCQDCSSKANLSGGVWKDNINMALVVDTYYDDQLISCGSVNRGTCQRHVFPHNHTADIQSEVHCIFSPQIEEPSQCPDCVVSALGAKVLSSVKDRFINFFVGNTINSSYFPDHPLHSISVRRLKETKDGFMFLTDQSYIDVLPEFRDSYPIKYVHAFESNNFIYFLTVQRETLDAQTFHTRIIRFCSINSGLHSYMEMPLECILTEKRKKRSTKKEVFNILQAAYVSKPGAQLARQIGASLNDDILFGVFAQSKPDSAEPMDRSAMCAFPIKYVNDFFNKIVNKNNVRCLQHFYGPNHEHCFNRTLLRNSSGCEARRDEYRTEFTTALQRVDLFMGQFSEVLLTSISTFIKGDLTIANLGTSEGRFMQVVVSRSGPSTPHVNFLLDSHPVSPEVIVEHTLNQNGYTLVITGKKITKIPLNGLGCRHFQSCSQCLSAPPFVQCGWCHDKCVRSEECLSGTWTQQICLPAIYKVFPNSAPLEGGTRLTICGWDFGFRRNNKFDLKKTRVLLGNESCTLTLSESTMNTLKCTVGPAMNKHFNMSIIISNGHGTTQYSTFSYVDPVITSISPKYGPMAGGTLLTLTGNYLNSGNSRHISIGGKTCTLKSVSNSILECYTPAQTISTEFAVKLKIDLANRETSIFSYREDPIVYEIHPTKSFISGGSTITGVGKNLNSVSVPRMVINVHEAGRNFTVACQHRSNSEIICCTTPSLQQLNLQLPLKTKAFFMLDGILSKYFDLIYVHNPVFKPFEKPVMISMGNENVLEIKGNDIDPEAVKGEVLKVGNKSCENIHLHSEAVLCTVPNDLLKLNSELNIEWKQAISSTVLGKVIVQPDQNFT

Row | Molecule | Fold Change of KD compared to parent
4 | B4 | 4.25
5 | B5 | 9
6 | B6 | 14.75
7 | B7 | 6.75
8 | B8 | 4.25
9 | B9 | 74.5
10 | B10 | 0.75
11 | B11 | 68
12 | B12 | 1792.5

Same assay, conditions: SPR, serine mutants in ECB15

Row | Molecule | binding to c-Met (in words)
13 | B13 | No binding was measurable
14 | B14 | No binding was measurable
15 | B15 | No binding was measurable

Same assay, conditions: listed as F38S

Row | Molecule | Fold Change of KD compared to parent
16 | B12 | greater than 100

Same assay, conditions: serine mutants of A3 in the context of ECB15

Row | Molecule | ka [M⁻¹ s⁻¹] | kd [s⁻¹]
17 | B4 | 185000 | 0.00032
18 | B5 | 329000 | 0.0012
19 | B6 | 425000 | 0.00249
20 | B7 | 475000 | 0.00127
21 | B8 | 321000 | 0.000536
22 | B9 | 289000 | 0.0086
23 | B10 | 440000 | 0.00015
24 | B11 | 188000 | 0.00512
25 | B12 | 45100 | 0.0323

Same assay, conditions: serine mutants of A3 in the context of ECB15; read-out: KD

Row | Molecule | Kd [nM]
26 | B4 | 1.7
27 | B5 | 3.6
28 | B6 | 5.9
29 | B7 | 2.7
30 | B8 | 1.7
31 | B9 | 29.8
32 | B10 | 0.3
33 | B11 | 27.2
34 | B12 | 717

System: not listed separately
Assay: Differential scanning calorimetry in PBS (thermal stability)
Assay type: physicochemical
Settings: DSC in PBS, c-Met-binding FN3 domains

Row | Molecule | Thermal Stability (Tm) [C]
35 | B16 | 88.2
36 | B17 | 86.2
37 | B18 | 85.3
38 | B19 | 76.8
39 | B20 | 90.9
40 | B21 | 87
41 | B22 | 76.8
42 | B23 | 85.2
43 | B24 | 87.2
44 | B25 | 83
45 | B26 | 74.1
46 | B27 | 80
